Source: paper PMC5663490 (PLoS ONE, 2017)
Blank lines part the entries; values can stand above or below the molecule they belong to.

Columns and labels:
HMunc18c (mouse) = HMunc18c (mouse) (UniProt Q60770); assay: ITC; Munc18 proteins (HMunc18c or Munc18a-His) at 10–20 μM with Syntaxin partners at 100–550 μM; 298 K; 25 mM HEPES pH 8, 200 mM NaCl, 2 mM β-mercaptoethanol, 10% glycerol; 16 injections of 2.45 μL; which partner was in the syringe is not said
HMunc18c = target: T1, HMunc18c (mouse, UniProt Q60770 1-592); assay: as above; conditions: both partners purified
T1 construct: pQE30 vector; also called Munc18-3; source: E. coli BL21 with GroEL/ES chaperones, purified (Ni2+ resin, SEC, MonoS if required); not shown: His6, N-terminal, kept
T1 sequence (looked up): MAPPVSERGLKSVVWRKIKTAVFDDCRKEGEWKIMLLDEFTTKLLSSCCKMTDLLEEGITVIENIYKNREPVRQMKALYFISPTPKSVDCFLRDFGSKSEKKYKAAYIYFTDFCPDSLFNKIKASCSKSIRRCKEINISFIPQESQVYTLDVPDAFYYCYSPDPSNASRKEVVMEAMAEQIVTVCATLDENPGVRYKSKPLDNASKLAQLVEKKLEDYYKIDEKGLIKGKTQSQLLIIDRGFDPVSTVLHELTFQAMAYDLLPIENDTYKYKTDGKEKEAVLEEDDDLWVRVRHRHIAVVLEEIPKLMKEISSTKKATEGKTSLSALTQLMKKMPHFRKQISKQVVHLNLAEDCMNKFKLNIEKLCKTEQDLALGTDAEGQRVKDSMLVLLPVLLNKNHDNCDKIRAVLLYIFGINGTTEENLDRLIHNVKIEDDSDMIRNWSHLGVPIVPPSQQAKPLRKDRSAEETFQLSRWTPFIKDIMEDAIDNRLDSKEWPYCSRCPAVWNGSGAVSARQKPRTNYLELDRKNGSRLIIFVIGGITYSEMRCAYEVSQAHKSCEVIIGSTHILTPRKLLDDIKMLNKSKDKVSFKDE

- Kd (HMunc18c (mouse)): 80 nM
- dH (HMunc18c (mouse)): -15.2 kcal/mol
- stoichiometry N (HMunc18c (mouse)): 1.03
Molecule: Sx1_(1-261)-His (from UniProt P32851 1-261) (domain or fragment)

- Kd (HMunc18c (mouse)): 730000 nM
- dH (HMunc18c (mouse)): -4.44 kcal/mol
- stoichiometry N (HMunc18c (mouse)): 1.07
Molecule: ΔNSx1_(25-261)-His (from UniProt P32851 25-261) (domain or fragment)

- Kd (HMunc18c): 100 nM
- dH (HMunc18c): -14.1 kcal/mol
- stoichiometry N (HMunc18c): 1.03
B1: Sx4_(1-275)-His (domain or fragment, rat, UniProt Q08850 1-275, looked up)
chain: MRDRTHELRQGDNISDDEDEVRVALVVHSGAARLSSPDDEFFQKVQTIRQTMAKLESKVRELEKQQVTILATPLPEESMKQGLQNLREEIKQLGREVRAQLKAIEPQKEEADENYNSVNTRMKKTQHGVLSQQFVELINKSNSMQSEYREKNVERIRRQLKITNAGMVSDEELEQMLDSGQSEVFVSNILKDTQVTRQALNEISARHSEIQQLERSIRELHEIFTFLATEVEMQGEMINRIEKNILSSADYVERGQEHVKIALENQKKARKKKVM
notes: cloned into pET20b; also called Syntaxin4; not shown: His6, C-terminal, kept
